Measurements reported in US20250136703A1 (PHANES THERAPEUTICS, published 2025).
Blank lines part the entries; values can stand above or below the binder they belong to.

Assays:
[1] = target: T1, recombinant human IL13Ra2 (ACROBiosystems; CAT #: IL2-H52H5) (human, UniProt Q14627 27-343); assay: ELISA, antigen coated on plate
T1 construct: Bought protein, coated on the ELISA plate; also called Interleukin-13 Receptor Subunit Alpha 2; immobilized recombinant IL13Ra2
T1 sequence (looked up): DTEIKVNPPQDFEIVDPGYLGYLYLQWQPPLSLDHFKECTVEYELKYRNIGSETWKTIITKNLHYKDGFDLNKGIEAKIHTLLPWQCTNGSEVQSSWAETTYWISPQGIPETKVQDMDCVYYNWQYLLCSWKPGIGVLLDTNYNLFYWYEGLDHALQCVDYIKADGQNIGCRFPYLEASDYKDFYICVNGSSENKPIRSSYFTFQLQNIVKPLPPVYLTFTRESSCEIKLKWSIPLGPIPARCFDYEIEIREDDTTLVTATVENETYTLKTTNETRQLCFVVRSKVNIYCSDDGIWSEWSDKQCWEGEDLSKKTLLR

[2] = target: T1, recombinant human IL13Ra2 …; assay: ELISA, antigen coated on plate, anti-human IgG Fc-HRP detection
Excerpt: FIGS. 1A-1E show the binding of purified chimeric anti-IL13Ra2 mAbs (VH and VL regions of mouse mAb fused to the constant regions of human IgG1 heavy chain and kappa light chain, respectively) to immobilized recombinant IL13Ra2 in an ELISA assay. The antigen was human IL13Ra2 (ACROBiosystems; Newark, DE; CAT #: IL2-H52H5). L3A6-C refers to the chimeric version of L3A6, other antibodies following the same naming rule; Isotype control (IgG1) was included as a negative control antibody.
Purified chimeric mAbs were tested in an ELISA assay for their ability to bind to immobilized IL13Ra2. Recombinant human IL13Ra2 in Carbonate-Bicarbonate Buffer (Sigma; St. Louis, MO; Cat #: C3041-100CAP) was coated on a 96-well plate at room temperature for 1 hour. The plate is blocked by 5% BSA in TBST for 1 hour at room temperature. In each well of an individual plate, mAbs at various concentrations were incubated for 1 hour at room temperature. The plate was washed and the binding to IL13Ra2 was detected by a mouse anti-human IgG Fc antibody conjugated to horseradish peroxidase (Genescript; Piscataway, NJ; Cat #: A01854) with incubation for 1 hour at room temperature. Then after washing, the ELISA was developed using One-step Detection Solution (ThermoFisher Scientific; Waltham, MA; Cat #: 34028) and measured as the absorbance at 450 nm. […]

- binding result [1]: binds
B1: L3A6-H1L1 (humanized mAb constructed with L3A6-H1 heavy chain and L3A6-L1 light chain) (antibody, V domains shown)
VH: QVTLRESGPALVKPTQTLTLTCTASGYTFTNYWMNWVRQPPGKALEWIGRIDPSDTETHYNQEVKDRATLSVDKSKNQAVLTMTNMDPVDTATYYCARGYGTYYGMDYWGQGSLVTVSS
VL: DIVLTQSPDSLSVSLGERATINCRASESVDNYGISFMNWFQQKPGQPPKLLIYAASNQGSGVPDRFSGSGSGTDFTLTISSLQAEDVAVYFCQQSKEVPWTFGGGTKVEIK
notes: Humanized VH and VL fused to the constant regions of human IgG1 heavy chain and kappa light chain

- binding result [2]: binds
B2: L3A6-C (chimeric version of L3A6) (antibody, V domains shown)
VH: QVQLQQPGAELVKPGAPVKLSCKASGYTFTNYWMNWVKQRPGRGLEWIGRIDPSDTETHYNQEVKDKATLTVDKSSSTAYIQLSSLTSEDSAVYYCARGYGTYYGMDYWGQGTSVTVSS
VL: not shown
notes: Mouse VH and VL fused to the constant regions of human IgG1 heavy chain and kappa light chain
